Among the data in patent US20260000597A1 (priority 2018, published 2026) are OD values, retold here.

The target of one experiment is AchR (Homo sapiens, UniProt P02708). Kind of experiment: ELISA of screened peptide phages on AchR versus streptavidin (OD450). The format is binding. Conditions: ELISA of selected 11-mer (L2) peptide phages on AchR, absorbance at 450 nm; Spep-2 positive control. The protocol: The output phages for the 4th and 5th rounds of biopanning in Example 13-1 were inoculated to E. coli, and plated on the agar plates so as to form 100-200 plaques per plate. The plaques were inoculated on 1 ml of an SB liquid medium containing 50 μg/ml of ampicillin by using a sterile tip, and cultured with shaking at 37° C. for 5 hours, followed by the addition of 30 μl of helper phages, and then cultured at 37° C. and 200 rpm for one day. The culture was centrifuged at 12,000 rpm for 2 minutes to collect supernatant, and 2% BSA was added to the supernatant, and used for phage screening.
AchR, sequence (P02708 21-457): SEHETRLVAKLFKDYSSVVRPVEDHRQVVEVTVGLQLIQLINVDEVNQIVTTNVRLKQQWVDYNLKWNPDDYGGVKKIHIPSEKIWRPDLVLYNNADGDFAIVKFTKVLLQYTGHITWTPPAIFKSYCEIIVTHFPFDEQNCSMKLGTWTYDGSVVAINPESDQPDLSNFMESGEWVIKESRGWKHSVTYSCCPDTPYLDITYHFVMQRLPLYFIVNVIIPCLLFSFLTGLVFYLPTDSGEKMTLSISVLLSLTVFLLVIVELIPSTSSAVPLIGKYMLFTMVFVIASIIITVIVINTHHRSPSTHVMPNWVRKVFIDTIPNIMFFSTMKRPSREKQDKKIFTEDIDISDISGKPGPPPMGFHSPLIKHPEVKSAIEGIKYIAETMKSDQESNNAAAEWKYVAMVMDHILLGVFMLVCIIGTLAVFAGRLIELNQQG
In a 96-well ELISA plate, 5 μg/ml AchR or streptavidin was added at 50 μl per well, and left at 4° C. overnight. The next day, the solution in each well was discarded, followed by the addition of 2% BSA, and then blocked at room temperature for 2 hours. After the solution was all discarded, the wells were washed three times with Tris (20 mM, pH7). In addition, 100 μl of each of the phage solutions obtained from the above-prepared plaques was dispensed into wells and left at 30° C. for 1 hour. After the solution in the wells was all discarded, the wells were washed three times with Tris (20 mM, pH 7), and then the HRP-conjugated anti-M13 antibody diluted 1:2,000 was added at 100 μl per well, followed by culture at 30° C. for 1 hour. After the wells were washed three times with Tris (20 mM, pH7), 100 μl of tetramethylbenzidine was added to each well to induce a color development reaction, and then the reaction was stopped by the addition of 100 μl of 1M H2SO4, and the absorbance at 450 nm (OD450) was measured. The measured absorbance was converted into a ratio of AchR absorbance to streptavidin absorbance (AchR signal/streptavidin signal), and the results are shown in FIGS. 14 to 16.
(In general: ELISA stands for enzyme-linked immunosorbent assay.)
Regarding “L2-60 (HADKFRRFNMR; AchR binding peptide) [Peptide L2-60]”, the OD is on record as 0.697.
The same measure, in the same setting: the same measure for “L2-75 (YILRDKKVPLK; AchR binding peptide) [Peptide L2-75]”: 0.539.
Same read-out and setting: the value for “L2-56 (FICKSRKFYGK; AchR binding peptide) [Peptide L2-56]” was 0.713; that for “L2-155 (NEARIKKCDVK; AchR binding peptide) [Peptide L2-155]” was 0.742.
Same read-out and setting: the same measure for “L2-152 (IALKPKRVWLK; AchR binding peptide) [Peptide L2-152]”: 0.681; for “L2-182 (HEQRPKKGQQK; AchR binding peptide) [Peptide L2-182]”: 0.681; for “L2-127 (YIIRWKRQMTR; AchR binding peptide) [Peptide L2-127]”: 0.569.
“L2-171 (YGTRPKKYVSK; AchR binding peptide) [Peptide L2-171]” registered an OD of 0.689.
Regarding “L2-5 (TQQRLKRVMEK; AchR binding peptide) [Peptide L2-5]”, the OD is 0.752.
In turn, “L2-93 (FNPKMRKVCLR; AchR binding peptide) [Peptide L2-93]” returned an OD of 0.635.
Same read-out and setting: the value for “L2-58 (ANPKNRKDNLR; AchR binding peptide) [Peptide L2-58]” was 0.701.
Still for that read-out and setting: the value for “L2-163 (PHARTRKNITK; AchR binding peptide) [Peptide L2-163]” was 0.725; that for “L2-6 (PELKCKRMIGR; AchR binding peptide) [Peptide L2-6]” was 0.78.
Still for that read-out and setting: the value for “L2-191 (PDSRLKKHEAK; AchR binding peptide) [Peptide L2-191]” was 0.689; that for “L2-170 (QVHRNKRYTDR; AchR binding peptide) [Peptide L2-170]” was 0.718.
“L2-73 (PPFKFRKPLGR; AchR binding peptide) [Peptide L2-73]” had an OD of 0.662.
On to “L2-96 (ISDKAKRQHFK; AchR binding peptide) [Peptide L2-96]”, for which the OD amounted to 0.708.
Same read-out and setting: the value for “L2-183 (TCDRARKESFR; AchR binding peptide) [Peptide L2-183]” was 0.688; that for “L2-69 (WCCKTKRAVMK; AchR binding peptide) [Peptide L2-69]” was 0.676; that for “L2-12 (AYAKARRWGQK; AchR binding peptide) [Peptide L2-12]” was 0.83.
Consider “L2-66 (PNYKWRKSRRR; AchR binding peptide) [Peptide L2-66]”, for which the OD was 0.798.
As to “L2-43 (LMDRTRRDMYK; AchR binding peptide) [Peptide L2-43]”, the OD is listed as 0.572.
On the same count and under the same terms, the value for “L2-141 (SSHKGKRAQSK; AchR binding peptide) [Peptide L2-141]” was 0.462; that for “L2-120 (PAARTKRMYGR; AchR binding peptide) [Peptide L2-120]” was 0.607.
For “L2-189 (AHIKSRKVWSR; AchR binding peptide) [Peptide L2-189]”, the OD is recorded as 0.696.
“L2-44 (NMGRHKRPFLK; AchR binding peptide) [Peptide L2-44]” gave an OD of 0.579.
The same measure, in the same setting: the same measure for “L2-145 (MNEKPKKNDQK; AchR binding peptide) [Peptide L2-145]”: 0.468; for “L2-53 (PAWRCKRCQPK; AchR binding peptide) [Peptide L2-53]”: 0.614; for “L2-10 (TSQKVRKMEAK; AchR binding peptide) [Peptide L2-10]”: 0.803.
For the substance “L2-42 (YYAKSKKYMVR; AchR binding peptide) [Peptide L2-42]”, the OD came out at 0.508.
In turn, “L2-71 (PYLRSKRFPPR; AchR binding peptide) [Peptide L2-71]” came in with an OD of 0.651.

Still in this experiment, the particulars now being: ELISA of selected 14-mer (L3) peptide phages on AchR, absorbance at 450 nm; Spep-2 positive control.
With “L3-46 (SAHKKRKQTLRCSE; AchR binding peptide) [Peptide L3-46]”, the OD is on record as 0.618.
On the same count and under the same terms, the same measure for “L3-111 (TWLRGRRWPDKQPQ; AchR binding peptide) [Peptide L3-111]”: 0.976.
As for “L3-123 (PGERLKKEDHRASG; AchR binding peptide) [Peptide L3-123]”, the OD was determined as 0.654.
For the substance “L3-24 (FVRKKRKSLLRDTR; AchR binding peptide) [Peptide L3-24]”, the OD is 0.846.
Still for that read-out and setting: the value for “L3-62 (YPERPRKLQDKSYS; AchR binding peptide) [Peptide L3-62]” was 0.766.
Same read-out and setting: the same measure for “L3-118 (YGIRDRRPMTKHTQ; AchR binding peptide) [Peptide L3-118]”: 0.69; for “L3-179 (YNARVKREGIKNIT; AchR binding peptide) [Peptide L3-179]”: 0.743.
Take “L3-65 (CLEKLRKAVHRQRR; AchR binding peptide) [Peptide L3-65]”: the OD is recorded as 0.731.
The same measure, in the same setting: the same measure for “L3-23 (QYHKVRKLWFRVEP; AchR binding peptide) [Peptide L3-23]”: 0.799; for “L3-31 (LSDKKRKSLLRYDY; AchR binding peptide) [Peptide L3-31]”: 0.763; for “L3-122 (MHPRPRKMSHKMSC; AchR binding peptide) [Peptide L3-122]”: 0.691.
Same read-out and setting: the same measure for “L3-40 (ASPKGRRPTFRPQH; AchR binding peptide) [Peptide L3-40]”: 0.733; for “L3-30 (WAHKCKKPGQRIPP; AchR binding peptide) [Peptide L3-30]”: 0.771; for “L3-147 (ADHRAKKTLSKFWT; AchR binding peptide) [Peptide L3-147]”: 0.562.
The same measure, in the same setting: the value for “L3-103 (NDWKLRKDFWRNHF; AchR binding peptide) [Peptide L3-103]” was 0.676.
Regarding “L3-13 (YCTRIRREGMKGSE; AchR binding peptide) [Peptide L3-13]”, the OD came out at 0.862.
Substance “L3-144 (CSYKLRRCDMRLWG; AchR binding peptide) [Peptide L3-144]” returned an OD of 0.578.
The same measure, in the same setting: the same measure for “L3-41 (GWLKAKRFPSRPPT; AchR binding peptide) [Peptide L3-41]”: 0.81; for “L3-183 (NMARSRKNECKYIA; AchR binding peptide) [Peptide L3-183]”: 0.768.
“L3-51 (NHHKTKRCSVRFNI; AchR binding peptide) [Peptide L3-51]” yielded an OD of 0.754.
Still for that read-out and setting: the value for “L3-36 (AFSRIKRGVLKLLS; AchR binding peptide) [Peptide L3-36]” was 0.787.

The experiment is the same for the next values; noted with them: phage ELISA, absorbance at 450 nm, 5 μg/ml AchR; 4th and 5th round biopanning phages.
KTRKIVMK [Peptide L1-199]: the OD is 0.596.
Still for that read-out and setting: the same measure for RPKRSPSK [Peptide L1-117]: 0.508.
On the same count and under the same terms, the same measure for KIKRNVFK [Peptide L1-160]: 0.55; for KPRRPDTR [Peptide L1-109]: 0.542; for RHRKYVDK [Peptide L1-152]: 0.484.
The same measure, in the same setting: the value for KERKLWWK [Peptide L1-171] was 0.583; that for KAKKIRQR [Peptide L1-1] was 0.693; that for KVKRLWNR [Peptide L1-110] was 0.422.
Regarding RAKRMCCK [Peptide L1-8], the OD stood at 0.653.
On the same count and under the same terms, the same measure for KDRKGVYK [Peptide L1-111]: 0.608; for KDKKTPCK [Peptide L1-193]: 0.588; for KFKKSAPR [Peptide L1-136]: 0.392.
Still for that read-out and setting: the value for KPKKPPAR [Peptide L1-84] was 0.576; that for KYKKSFTK [Peptide L1-198] was 0.63; that for RTKKAYVK [Peptide L1-200] was 0.621.
KLKRAMLK [Peptide L1-169] returned an OD of 0.636.
Same read-out and setting: the value for KWRRAFGR [Peptide L1-87] was 0.538; that for KHKRTAQR [Peptide L1-78] was 0.642.
The same measure, in the same setting: the same measure for KEKRAVHK [Peptide L1-48]: 0.519; for RGKRHWHR [Peptide L1-179]: 0.633; for RDRKIHDK [Peptide L1-23]: 0.712.
On the same count and under the same terms, the same measure for RCKRCDNK [Peptide L1-120]: 0.388.
In turn, RPRRTHIK [Peptide L1-6] gave an OD of 0.652.
The substance KSRKHCNR [Peptide L1-70] yielded an OD of 0.668.
The same measure, in the same setting: the same measure for KAKRGHFK [Peptide L1-68]: 0.55.
Still for that read-out and setting: the value for KNKRTPVK [Peptide L1-86] was 0.551.
